Series [1] has as its target Klebsiella pneumoniae CbpM (residues 2-101) (Klebsiella pneumoniae (strain ATCC 700721/MGH 78578)). Kind of series: crystal structure; K. pneumoniae CbpM with E. coli CbpA^Jdom, complex separated from excess CbpA^Jdom on Superdex 75; hanging drop, 0.1 M HEPES pH 7, 20% (w/v) PEG 8K; 1.87 Å.
Series [2] concerns the molecule itself. Described as above.
The target in series [3] is T1, CbpM (residues 2-101), species not named for the experiment ( (E. coli K-12 or K. …, UniProt P63264 2-101)).
T1 construct: CbpM residues 2-101; the immobilisation is told there; also called immobilized CbpM; source: E. coli Rosetta pLysS, purified (Ni-NTA, tag cleaved, amylose resin, size exclusion); not shown: His-MBP, N-terminal, cleaved
T1 sequence: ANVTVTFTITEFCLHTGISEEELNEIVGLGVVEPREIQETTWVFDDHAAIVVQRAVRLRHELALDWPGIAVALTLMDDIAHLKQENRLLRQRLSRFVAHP
Kind of series: SPR; CbpM immobilised, DnaJ^Jdom variants injected (50 µL/min, 120 s); ProteOn XPR36, 25°C, 50 mM sodium phosphate pH 7.4, 100 mM NaCl, 1 mM DTT, 0.005% Tween 20; steady-state equilibrium fit (one site). The note with it: both partners purified.

For “J-domain of E. coli CbpA (CbpA^Jdom) (domain or fragment)”, in series [1], the stoichiometry N (binder:target chains (printed 2:2)) was 1.

B1: Klebsiella pneumoniae CbpM (residues 2-101) (natural protein, UniProt A0A378AXB4 2-101, looked up)
chain: ATVTVTFTITELCLRTGVSEEELTEIVGLGMIEPHQPQADTWLFDDSAVTIVHRAVRLRNELELDWPGIAVALTLLDENARLTRENRLLQQRLARFLAHG
notes: CbpM of Klebsiella pneumoniae (strain ATCC 700721/MGH 78578), residues 2-101, amplified from genomic DNA; Forms a parallel coiled-coil dimer in the crystal; each CbpA J-domain touches both subunits; also called K. pneumoniae CbpM; Klebsiella CbpM; source: E. coli Rosetta pLysS, purified (Ni-NTA, tag cleaved, amylose resin, size exclusion); not shown: His-MBP, N-terminal, cleaved
Regarding B1, the stoichiometry N (as a rule, a count of units in the complex or per binding partner) in series [2] came out at 2.

B2: Chimeric DnaJ^Jdom(25-47): DnaJ J-domain with the central region Y25-F47 replaced by that of CbpA^Jdom (domain or fragment, E. coli, UniProt P08622 2-79, looked up)
chain: AKQDYYEILGVSKTAEEREIRKAYRRLARKYHPDVSKEPDAEARFKEIKEAYEVLTDSQKRAAYDQYGHAAFEQGGM
notes: DnaJ of E. coli, J-domain, residues 2-79, with residues 25-47 replaced by residues 25-46 of E. coli CbpA; also called chimera DnaJ^Jdom (25-47); source: E. coli Rosetta pLysS, purified (glutathione sepharose, tag cleaved, size exclusion); not shown: GST, N-terminal, cleaved
For the molecule B2, in series [3], the dissociation constant (Kd) (commonly the constant that tells how readily two partners part at equilibrium) came out at 26 µM.

(Values after article PMC4063869, “Structure of CbpA J-Domain Bound to the Regulatory Protein CbpM Explains Its Specificity and Suggests Evolutionary Link between CbpM and Transcriptional Regulators” (PLoS ONE, 2014).)
